{"source": "the nanobody polyreactivity screen of Harvey et al. (2022)", "data": [{"test": "yeast display, Sf9 membrane polyspecificity reagent, FACS + sequencing; frameworks hold sequencing errors", "procedure,_shortened": "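Nanobodies came from a synthetic yeast display library in Saccharomyces cerevisiae BJ5465, induced with galactose for 36–48 hours and stained for 1 hour at 4 °C with 10% biotinylated, detergent-solubilized Sf9 membrane reagent. Cells were enriched on streptavidin microbeads and then FACS-sorted, with low and high (top ~1%) gates set on anti-HA fluorescence for expression and streptavidin fluorescence for reagent binding. Each polyreactivity label reflects the gate a clone came from. Genes were amplified by colony PCR, sequenced by MiSeq 2 × 250 and filtered by CDR length.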", "values": [{"sequence": "QVQLVESGGGLVQAGGSLRLSCAASGRTFPGYAMGWYRQAPGKERELVATITGNGGSTYYADSVKGRFTISRDNAKNTVYLQMNSLKPEDTAVYYCAAGRRRPYVRAYRGTDYWGQGTQVTVSS", "polyreactivity (PSR sort gate)": "low polyreactivity"}, {"sequence": "QGQLVESGGGLVQAGGSLRLSCAPSGGTFEFYTMGWYRQAPGKERELVAVINASGDSTYYADSVKGRFTISRDNAKNTVYLQMNSLKPEDTAVYYCAADHRGEYDYWGQGTQVTVSS", "polyreactivity (PSR sort gate)": "low polyreactivity"}, {"sequence": "QVQIVESGGGLVQAGGSLRLSCAASGRTFKYYAMGWYRPAPGKERELVAAISYSGGSTYYADSVKGRFTISRDNAKNTVYLQMNSLKPEDTAVYYCAARFTRYYSGCDQKYDYWGQGTQVTVSS", "polyreactivity (PSR sort gate)": "high polyreactivity"}, {"sequence": "QVQLVESGGGLVQAGGSLRLSCAASGSTFPRYAMGWFRQAPGKEREFVAAISRRGGSTYYADSVKGRFTISRDNAKNTVYLQMNSLKPEDTAVYYCANRVRTGSVGNFNYWGQGTQVTVSS", "polyreactivity (PSR sort gate)": "high polyreactivity"}, {"sequence": "QVQLVESGGGLVQAGGSLRLSCAASGRTFEGNAMGWYRQAPGKERELDAAITSGGRTNYADSVKGRFTISRDNAKNTVYLQMNSLKPEDTAVYYCAVETRDRSTSFPGQAYDYWGQGSQVTVSS", "polyreactivity (PSR sort gate)": "low polyreactivity"}, {"sequence": "QVQLVESGGGLVQAGGSLRLSCAASGRTFGLNAMGWYRQAPGKERELVAAISSSGGSTYYADSVKGRFTISRDNAKNTVYLQMNSLKPEDTAVYYSAKVLYLYGTAYYYWGQGTEVTVSS", "polyreactivity (PSR sort gate)": "high polyreactivity"}, {"sequence": "QVQLVESGGGLVQAGGSLRLSCAASGRNFGDYAMGWYRQAPGKERELVAAISSSGGRTYYADSVKGRFTISRDNAKNTVYLQMNSLQPEDTAVYYCAAQSKYYQYYSWGQGTQVTVSS", "polyreactivity (PSR sort gate)": "high polyreactivity"}, {"sequence": "QVQLVESGGGLVQAGGSLRLSCAASGSIFTYNTMGWYRQAPGKERELVAAISSGGRTYYADSVKGRFTISRDNAKNTVYLQMNSLKPEDTAVYYCAARYYFWGQGTQVTVSS", "polyreactivity (PSR sort gate)": "high polyreactivity"}, {"sequence": "QVQLVESGGGLVQAGGSLRISCAASGRTIDSYAMGWYRQAPGKERELVAAISWGGGSTYYADSVKGRFTISRDNAKNTVYLQMNSLKPEDTAVYYCAARWNYTEFDYWGQGTQVTVSS", "polyreactivity (PSR sort gate)": "low polyreactivity"}, {"sequence": "QVQLVESGGGLVQAGGSLRLICAASGFTIWFNAMGWYRQAPWKERDLVATIRGSGGTTYYAYSVKGRFTISRDNAKNTVYLQMNSLKPEDTAVYYCAAEGSFRKFDYCGQGTQVTVSS", "polyreactivity (PSR sort gate)": "low polyreactivity"}, {"sequence": "QVQLVESGGGLVQAGGSLRLSCAAAGLTFEWYTMGWYRQAPGKERELVADISGDGSTYYADSVKGRFTISRDNAKNTVYLQMNSLKPEDTAVYYCAASFWGFAMGYWGQGTQVTVSS", "polyreactivity (PSR sort gate)": "high polyreactivity"}, {"sequence": "QVQLVESAGGLVQAGGSLRLICAATGLNLYVYVMGWYRQAPGKERELVAAITWSVSRTYYADSVKGRFTISRDNAKNTVYLQMNSLKPEDTAVYYCAARIPSDGYYYWGQGTQVTVSS", "polyreactivity (PSR sort gate)": "high polyreactivity"}, {"sequence": "QVQLVESGGGLVQARVSLRLICAASAIIIYDNAIGWYRQAPGKESEFVATINYSGDSTYYADSVKGRFTISRDNANNTVYLQMNSLKPEDTAVYYCATDGAWQYYWVYSHVYWGQGTQVTVSS", "polyreactivity (PSR sort gate)": "low polyreactivity"}, {"sequence": "QVQLVESGGGLVQAGGSLRLSCAASGSTFYKYAMGWYRQAPGKERELVASISRSGGSTSYADSVKGRFTISRDNAKNTVYLHMNSLIPEDTAVYYCAATWRQHPGSMGYWGQGTQVTVSS", "polyreactivity (PSR sort gate)": "high polyreactivity"}, {"sequence": "QVQLVESGGGLVQAGGSLRLSCAASGFIFPTYAMGWYRQAPGKERELVAAISRSGGRTYYADSVKGRFTISRDNAKNTVYLQKNSLKPEDTAVYYCAAAYLRRVAYDYWGQGTQVTVSS", "polyreactivity (PSR sort gate)": "high polyreactivity"}, {"sequence": "QVQLVESGGGLVQAGGSLRLSCAASGRIFWHYAMGWYRQAPGKERELVAAIDYSGGRTRYADSVKGRFTISRDNAKNTVYLQMNSLKPEDTAVYYCAARRSSWGSFTGYYYWGQGTQVTVSS", "polyreactivity (PSR sort gate)": "high polyreactivity"}, {"sequence": "QVQLVESGGGLVQAGGSLRLSCAASGRTSFQYAMGWYRQAPGKERELVAAISWSGGSTFYADSVKGRFTISRDNAKNTVYLQMNSLKPEDTAVYYCNAVSTDSWAYHGDYWGQGTQVTVSS", "polyreactivity (PSR sort gate)": "low polyreactivity"}, {"sequence": "QVQLVESGGGLVQAGGSLRLSCAASGRTFPAYAMGWYRQAPGKERELVAAISSSGSRTYYADSVKGRFTISRDNAKNTVYLQMNSLKPEDTAVYYCAARGGRRQKVNRDDYWGQGTQVTVSS", "polyreactivity (PSR sort gate)": "high polyreactivity"}, {"sequence": "QVQLVESGGGLVQAGGSLRLSCAASGSIFSYYAMGWYRQAPGKERELVAAITISGSSTYYADSVKGRFTISRDNAKNTVYLQMNSLKPEDTAVYYCNVVPLGSKNSVSHYYWGQGTQVTVSS", "polyreactivity (PSR sort gate)": "high polyreactivity"}, {"sequence": "QDQLVESGGGLVQAGGSLRLSCAASGFTFGYYPMGWSRQAPGKERELVAAITSSGGRTYYADSVKGRFTISRDYGKNTVYLQMNSLKPEDTAVYYCATAYRPDYGYWGQGTQVTRSS", "polyreactivity (PSR sort gate)": "high polyreactivity"}, {"sequence": "QVQRVESGGGLVQEGGSLRLSCAASGITFAGYAMGWYRQAHGKERELVAAISTRGGSTTYADSVKGRFTISLDNAKNTVYLQMNRLKPEDTAVYYCAADSYYRRYFGWYEYWGQGTQVTVSS", "polyreactivity (PSR sort gate)": "high polyreactivity"}, {"sequence": "QVQLVESGGGLVQAGGSLRLSCAASGGTFKTNAMGWYRQAPGTERELVAAIRYSGGDTYYADSVKGRFTISRDNAKNTVYLLLKSLKPEDTAVYYCAADFTLLYDYWGQGTQVTVSS", "polyreactivity (PSR sort gate)": "low polyreactivity"}, {"sequence": "QVQLVESGGGLVQAGGSLRLSCAASGNIFDTYVMGWYRQAPGKERELVAAITSDGGTYYADSVKGRFTSSRDNATNPVYLQMNSRQPEDTAVYYCAADTYYYPIHDYWGQGTQVTVSS", "polyreactivity (PSR sort gate)": "low polyreactivity"}, {"sequence": "QVQLVESGGALVQAGGSLRLSCAASGSTFGRYAMGWYRQAPGKERELVATIRSGGSTTYADSVKGRFTISRDNAKNTVYLQMNSLKREDTAVYYCAAGTKPSYYYWGQGTQVTVSS", "polyreactivity (PSR sort gate)": "low polyreactivity"}, {"sequence": "QVQLVESGGGLVQAGGSLRLSCAASGRTFAYNAMGWYRQAPGTERELVAAITGSGGRTYYADSVKGRFTLSRDNAKYTVYLQMNSLIPEDTAVYYCAVGLPSRYDYWGQGTQVTVSS", "polyreactivity (PSR sort gate)": "low polyreactivity"}, {"sequence": "QVQLVESGGRLVQAGRSLRLSCAASGFTFYDYAMVWYRQEPGKERELVARINGGGGTNYADSVKGRFTNSRDNAKNTVYLQMNSLKPEDTAVYYCAAEFGSRPPYDYWGQGTQVTVSS", "polyreactivity (PSR sort gate)": "low polyreactivity"}, {"sequence": "QVQLVESVGGLVQAGGSLRLSCAASGRIFEVYVMGWYRQAPGKERELVAAISTGGSTYYADSVKGRFTISRDNAKNTVYLQMNSLKPEDTAVYYCAARKTRRYGSGHDYWGQGTQVTVSS", "polyreactivity (PSR sort gate)": "high polyreactivity"}, {"sequence": "QVQLVESGGGLVQAGVSLRLSCAASGSIFSYNAMGWYRQAPGKERELVAAISRCSGSTYYADSVKGRFTISRDIAKNTVYLQMNSLKPEDTAVYYCAGRPKTIPSYYLGYHVRFDYWGQGTQVTVSS", "polyreactivity (PSR sort gate)": "low polyreactivity"}, {"sequence": "QVQLVESGGVLVQAGGSLRLSCAASGSIFGNYAMGWYRQAPGKETELVAAISYRGGSTYYADSVKGRFTISRDNAKNTVYLQMNSLKPEDTAVYYCNAGGRRRIFAHSSTGDYWGQGTQVTVSS", "polyreactivity (PSR sort gate)": "high polyreactivity"}, {"sequence": "QVQLVESGGGLVQAGGSLRLSCAASGRTFVYNAMGWYRQAPGKEREMVSGITNGGSTNYADSVKGRFTISRDNAKNTVYLQMNSLKPEDTAVYYCAADSRVYPYYFGDFGYWGQGTQVTVSS", "polyreactivity (PSR sort gate)": "low polyreactivity"}, {"sequence": "QVQLVESGGGLVQAGGSLRLSCAASGRTFWFYDMGWYRQAPGKEREFVASITSSGGSTYYADSVKGRFTISRDIAKNTVYLQMNSLNPEDTAVYYCAASFYWTTRYSREYDYWGQGTQVTVSS", "polyreactivity (PSR sort gate)": "high polyreactivity"}, {"sequence": "QVQLVESGGGLVQAGGSLRLSCAPSVRTFQYYAMGWYRPAPGKERELVAAINQGGGRTYYADSVKGRFTISRDTAKNTVYLQMNSLKPEDTAVYYCAADGLSKFDYWGQGTQVTVSS", "polyreactivity (PSR sort gate)": "low polyreactivity"}]}]}
